Numbering of substitutions follows the chain as printed. One block for each binder: values may come before it.
Assays:
[1] = target: T1, Human HER3 protein on the cell surface (human, UniProt P21860 20-1342); assay: cell-based or functional assay
[2] = target: T1, Human HER3 protein on the cell surface; assay: FACS on MDA-MB-453 cells (HER3 single-positive)
[3] = target: T2, Human MET protein on the cell surface (human, UniProt P08581 25-1390); assay: FACS on NCI-H1975 cells (MET single-positive), FIG. 3
T2 construct: whole, on cells; also called MET single-positive cells (NCI-H1975, NCI-H1703)

[4] = target: Human HER3 and MET proteins together on HER3/MET double-positive cells (human, UniProt P21860 20-1342; P08581 25-1390); assay: cell-based or functional assay
[5] = target: T3, His-tagged human HER3 antigen (human, UniProt P21860 20-643); assay: SPR, Biacore 8K, protein A chip; ADC captured, His-tagged antigen 6.25-400 nM as analyte; 1:1 Langmuir
T3 construct: Soluble antigen used as analyte in SPR; not shown: His tag

[6] = target: T2, Human MET protein on the cell surface; assay: cell-based or functional assay
[7] = target: T4, His-tagged human MET antigen (human, UniProt P08581 25-932); assay: SPR, Biacore 8K; antibody captured, His-tagged human MET antigen 6.25-400 nM as analyte; 1:1 Langmuir
T4 construct: Soluble antigen used as analyte in SPR; not shown: His tag

[8] = target: T3, His-tagged human HER3 antigen; assay: SPR, Biacore 8K; antibody captured, His-tagged human HER3 antigen 6.25-400 nM as analyte; 1:1 Langmuir

T4 sequence (P08581 25-932 limits assumed): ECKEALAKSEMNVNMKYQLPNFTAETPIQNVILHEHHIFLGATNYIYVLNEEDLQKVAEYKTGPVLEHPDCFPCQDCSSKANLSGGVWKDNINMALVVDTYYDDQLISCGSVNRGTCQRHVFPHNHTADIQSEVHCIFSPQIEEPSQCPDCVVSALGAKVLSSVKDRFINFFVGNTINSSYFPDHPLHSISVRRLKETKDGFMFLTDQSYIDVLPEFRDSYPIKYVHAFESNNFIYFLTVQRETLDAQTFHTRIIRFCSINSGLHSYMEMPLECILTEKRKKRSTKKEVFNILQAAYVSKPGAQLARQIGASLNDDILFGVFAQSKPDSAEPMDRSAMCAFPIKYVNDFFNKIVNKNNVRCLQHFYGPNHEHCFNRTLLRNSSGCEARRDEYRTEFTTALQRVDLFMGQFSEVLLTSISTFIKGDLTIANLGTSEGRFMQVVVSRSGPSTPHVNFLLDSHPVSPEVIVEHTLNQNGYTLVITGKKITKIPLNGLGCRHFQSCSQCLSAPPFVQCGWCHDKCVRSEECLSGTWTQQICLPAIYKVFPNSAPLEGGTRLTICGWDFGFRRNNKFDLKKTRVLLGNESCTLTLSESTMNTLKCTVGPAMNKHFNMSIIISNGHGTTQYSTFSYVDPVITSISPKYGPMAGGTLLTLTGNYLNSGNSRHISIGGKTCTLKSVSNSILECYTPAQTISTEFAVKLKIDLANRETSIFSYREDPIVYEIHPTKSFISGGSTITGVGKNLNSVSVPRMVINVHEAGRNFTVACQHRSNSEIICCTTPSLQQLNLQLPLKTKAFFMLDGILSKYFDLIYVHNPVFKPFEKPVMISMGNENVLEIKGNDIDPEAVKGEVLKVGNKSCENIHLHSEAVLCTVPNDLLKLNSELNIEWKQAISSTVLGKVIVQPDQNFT
T2 sequence (P08581 25-1390): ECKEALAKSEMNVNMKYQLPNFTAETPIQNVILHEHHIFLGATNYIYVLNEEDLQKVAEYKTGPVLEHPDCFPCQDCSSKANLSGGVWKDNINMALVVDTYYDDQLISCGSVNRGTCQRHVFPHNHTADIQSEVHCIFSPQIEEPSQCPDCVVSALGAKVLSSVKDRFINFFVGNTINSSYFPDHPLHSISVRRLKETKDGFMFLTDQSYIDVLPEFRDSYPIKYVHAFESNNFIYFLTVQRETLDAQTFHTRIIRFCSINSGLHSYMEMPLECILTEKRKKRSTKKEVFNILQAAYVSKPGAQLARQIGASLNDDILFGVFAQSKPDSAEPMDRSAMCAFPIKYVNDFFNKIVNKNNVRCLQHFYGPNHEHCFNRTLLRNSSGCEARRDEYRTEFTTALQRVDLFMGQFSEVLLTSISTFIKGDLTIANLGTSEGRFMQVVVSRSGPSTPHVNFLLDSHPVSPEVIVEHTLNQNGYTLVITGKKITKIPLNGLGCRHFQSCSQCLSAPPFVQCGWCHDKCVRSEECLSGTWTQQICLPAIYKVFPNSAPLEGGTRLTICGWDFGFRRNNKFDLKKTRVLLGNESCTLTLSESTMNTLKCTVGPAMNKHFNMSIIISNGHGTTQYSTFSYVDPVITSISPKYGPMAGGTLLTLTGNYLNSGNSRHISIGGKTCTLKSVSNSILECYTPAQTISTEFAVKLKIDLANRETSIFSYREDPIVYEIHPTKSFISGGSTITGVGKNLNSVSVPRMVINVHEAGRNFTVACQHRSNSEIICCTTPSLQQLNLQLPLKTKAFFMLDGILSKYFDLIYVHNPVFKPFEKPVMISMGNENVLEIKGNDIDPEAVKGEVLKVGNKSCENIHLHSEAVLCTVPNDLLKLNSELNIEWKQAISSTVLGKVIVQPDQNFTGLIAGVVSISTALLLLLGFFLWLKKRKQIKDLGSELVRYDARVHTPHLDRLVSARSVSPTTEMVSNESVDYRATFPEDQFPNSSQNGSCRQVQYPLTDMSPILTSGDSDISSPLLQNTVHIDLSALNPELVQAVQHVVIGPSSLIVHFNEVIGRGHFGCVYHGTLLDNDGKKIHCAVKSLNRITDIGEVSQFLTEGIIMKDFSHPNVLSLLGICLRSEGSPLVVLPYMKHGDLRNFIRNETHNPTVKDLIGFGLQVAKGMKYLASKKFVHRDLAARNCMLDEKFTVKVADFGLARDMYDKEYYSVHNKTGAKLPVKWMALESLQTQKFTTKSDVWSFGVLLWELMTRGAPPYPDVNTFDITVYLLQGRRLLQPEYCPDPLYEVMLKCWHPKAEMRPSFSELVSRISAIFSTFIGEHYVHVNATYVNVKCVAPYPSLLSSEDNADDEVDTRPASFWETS

- Maximum fluorescence value [2]: 77
B1: Anti-MET antibody S3 (antibody, human IgG2, kappa, V domains shown)
VH: QVQLVESGGGVVQPGRSLRLSCAASGFSLSNYGVHWVRQAPGKGLEWLAVIWSGGSTNYAAAFVSRLTISKDNSKNTVYLQMNSLRAEDTAVYYCARNHDNPYNYAMDYWGQGTTVTVSS
VL: DIVLTQSPDSLAVSLGERATINCRADKSVSTSTYNYLHWYQQKPGQPPKLLIYLASNLASGVPDRFSGSGSGTDFTLTISSLQAEDVAVYYCQHSRDLPPTFGQGTKLEIKR
- Minimum cell viability (%) [1]: 97.3%

- binding result [3]: binds
B2: Anti-HER3/MET bispecific antibody P3-A (bispecific antibody, human IgG1, kappa)
heavy 1: not shown
light 1: QAVLTQPSSVSGAPGQRVTISCTGSSSNIGAGYDVHWYQQLPGTAPKLLIYGNSNRPSGVPDRFSGSKSGTSASLAITGLQAEDEADYYCQSYDSSLSGVFGTGTQLTVLGGGGSGIPPKIECLPIDISIDEGKVLTVASAFTGEPTPEVTWSTGGRKIHSQEQGRFHIENTDDSTTLTIKDVQKQDGGLYTLTLRNEFGSDSATVNIHIRSI
heavy 2: QVQLVQSGGGLVQPGRSLRLSCAASGFTFDDYAMHWVRQAPGKGLEWVSGISWNSGSIGYADSVKGRFTISRDNAKNSLYLQMNSLRAEDTALYYCAKEGLPGLDYWGQGTLVTVSSASTKGPSVFPLAPSSKSTSGGTAALGCLVKDYFPEPVTVSWNSGALTSGVHTFPAVLQSSGLYSLSSVVTVPSSSLGTQTYICNVNHKPSNTKVDKKVEPKSCDKTHTCPPCPAPELLGGPSVFLFPPKPKDTLMISRTPEVTCVVVDVSHEDPEVKFNWYVDGVEVHNAKTKPREEQYNSTYRVVSVLTVLHQDWLNGKEYKCKVSNKALPAPIEKTISKAKGQPREPQVCTLPPSREEMTKNQVSLSCAVKGFYPSDIAVEWESNGQPENNYKTTPPVLDSDGSFFLVSKLTVDKSRWQQGNVFSCSVMHEALHNHYTQKSLSLSPGK
light 2: DIQMTQSPSSLSASIGDRATITCRASQHVGTYLNWYQQKPGKTPKLLISGAANLQSGVPSRFSGSGSGTDFTLTISSLQPEDFATYYCQQSYNTPPFSFGQGTKVEIKRTVAAPSVFIFPPSDEQLKSGTASVVCLLNNFYPREAKVQWKVDNALQSGNSQESVTEQDSKDSTYSLSSTLTLSKADYEKHKVYACEVTHQGLSSPVTKSFNRGEC
- Minimum cell viability (%) [4]: 16.4%

- Kd [5]: 19.7 nM
- koff [5]: 0.0108 s⁻¹
- kon [5]: 546000 M⁻¹ s⁻¹
B3: Anti-HER3/MET antibody-drug conjugate ADC-2 (bispecific antibody, human IgG1, kappa)
heavy 1: not shown
light 1: DIVLTQSPDSLAVSLGERATINCRADKSVSTSTYNYLHWYQQKPGQPPKLLIYLASNLASGVPDRFSGSGSGTDFTLTISSLQAEDVAVYYCQHSRDLPPTFGQGTKLEIKGGGGSGIPPKIECLPIDISIDEGKVLTVASAFTGEPTPEVTWSTGGRKIHSQEQGRFHIENTDDSTTLTIKDVQKQDGGLYTLTLRNEFGSDSATVNIHIRSI
heavy 2: B2 heavy 2
light 2: B2 light 2
modifications: compound 9-A on reduced cysteines, positions not given; compound 9-A (exatecan derivative linker-drug) on reduced cysteines, positions not given; target DAR 6 for the whole molecule
notes: target DAR 6; distribution of the drug over the chains not reported for ADC-2

- binding result [3]: binds
B4: Anti-HER3/MET bispecific antibody 5D5-A (bispecific antibody, human IgG1, kappa)
heavy 1: not shown
light 1: DIQMTQSPSSLSASVGDRVTITCKSSQSLLYTSSQKNYLAWYQQKPGKAPKLLIYWASTRESGVPSRFSGSGSGTDFTLTISSLQPEDFATYYCQQYYAYPWTFGQGTKVEIKGGGGSGIPPKIECLPIDISIDEGKVLTVASAFTGEPTPEVTWSTGGRKIHSQEQGRFHIENTDDSTTLTIKDVQKQDGGLYTLTLRNEFGSDSATVNIHIRSI
heavy 2: B2 heavy 2
light 2: B2 light 2
- Minimum cell viability (%) [4]: 20.5%

- binding result [3]: binds
B5: Anti-HER3/MET bispecific antibody A9-A (bispecific antibody, human IgG1, kappa)
heavy 1: not shown
light 1: EIVLTQSPGTLSLSPGERATLSCRASQSVSNNYLAWYQQKPGQAPRLLIFGASSRATGIPDRFSGSGSGTDFTLTISRLEPEDFAVYYCQQYDISPMYSFGQGTKLEMKGGGGSGIPPKIECLPIDISIDEGKVLTVASAFTGEPTPEVTWSTGGRKIHSQEQGRFHIENTDDSTTLTIKDVQKQDGGLYTLTLRNEFGSDSATVNIHIRSI
heavy 2: B2 heavy 2
light 2: B2 light 2
- Minimum cell viability (%) [4]: 15.9%

- EC50 [2]: 2.64 nM
- Maximum fluorescence value [2]: 1870
B6: Anti-HER3/MET bispecific antibody 2232-02 (S3-A) (bispecific antibody, human IgG1, kappa)
heavy 1: not shown
light 1: B3 light 1
heavy 2: B2 heavy 2
light 2: B2 light 2
- Minimum cell viability (%) [1]: 25.8%

B7: Anti-HER3/MET bispecific antibody P8-A (bispecific antibody, human IgG1, kappa)
heavy 1: not shown
light 1: NFMLTQPHSVSESPGKTVTISCTRSSGSIAFDYVQWYQQRPGSAPTTVIYEDNQRPSGVPDRFSASIDSSSNSASLTISALKTEDEADYYCQSYDNSNSWVFGGGTKLTVLGGGGSGIPPKIECLPIDISIDEGKVLTVASAFTGEPTPEVTWSTGGRKIHSQEQGRFHIENTDDSTTLTIKDVQKQDGGLYTLTLRNEFGSDSATVNIHIRSI
heavy 2: B2 heavy 2
light 2: B2 light 2
- Minimum cell viability (%) [4]: 12.1%

- Endocytosis ratio at 0 h (FACS) [6]: 0%
- Endocytosis ratio at 0.5 h (FACS) [6]: 25.7%
- Endocytosis ratio at 2 h (FACS) [6]: 45.7%
- Endocytosis ratio at 6 h (FACS) [6]: 57.6%
- Kd [7]: 6.55 nM
- koff [7]: 0.000614 s⁻¹
- kon [7]: 93800 M⁻¹ s⁻¹
B8: Anti-MET antibody A13 (antibody, human IgG1, kappa, V domains shown)
VH: QVQLVQSGAEVKKPGASVKVSCEASGYTFTSYGFSWVRQAPGQGLEWMGWISASNGNTYYAQKLQGRVTMTTDTSTSSAYMELRSLRSDDTAVYYCARVYADYADYWGQGTLVTVSS
VL: DIQMTQSPSSVSASVGDRVTITCRASQGINTWLAWYQQKPGKAPKLLIYAASSLKSGVPSRFSGSGSGADFTLTISSLQPEDFATYYCQQANSFPLTFGGGTKVEIKR

- Kd [7]: 17.6 nM
- koff [7]: 0.00146 s⁻¹
- kon [7]: 83000 M⁻¹ s⁻¹
B9: Antibody A13 N30Q (antibody, human IgG1, kappa, V domains shown)
VH: B8 VH
VL: B8 VL with N30Q
notes: Differs from antibody A13 only by N to Q at position 30 of VL

- Kd [7]: 7.69 nM
- koff [7]: 0.000776 s⁻¹
- kon [7]: 101000 M⁻¹ s⁻¹
B10: Antibody A13 N30S (antibody, human IgG1, kappa, V domains shown)
VH: B8 VH
VL: B8 VL with N30S
notes: Differs from antibody A13 only by N to S at position 30 of VL

- Kd [7]: 93.1 nM
- koff [7]: 0.00521 s⁻¹
- kon [7]: 56000 M⁻¹ s⁻¹
B11: Antibody A13 T31V (antibody, human IgG1, kappa, V domains shown)
VH: B8 VH
VL: B8 VL with T31V
notes: Differs from antibody A13 only by T to V at position 31 of VL

- Kd [7]: 17 nM
- koff [7]: 0.0018 s⁻¹
- kon [7]: 106000 M⁻¹ s⁻¹
B12: Antibody A13 N30T (antibody, human IgG1, kappa, V domains shown)
VH: B8 VH
VL: B8 VL with N30T
notes: Differs from antibody A13 only by N to T at position 30 of VL

- Kd [8]: 51.4 nM
- koff [8]: 0.0295 s⁻¹
- kon [8]: 573000 M⁻¹ s⁻¹
B13: Antibody A N93Q (antibody, human IgG1, kappa, V domains shown)
VH: QVQLVQSGGGLVQPGRSLRLSCAASGFTFDDYAMHWVRQAPGKGLEWVSGISWNSGSIGYADSVKGRFTISRDNAKNSLYLQMNSLRAEDTALYYCAKEGLPGLDYWGQGTLVTVSS
VL: DIQMTQSPSSLSASIGDRATITCRASQHVGTYLNWYQQKPGKTPKLLISGAANLQSGVPSRFSGSGSGTDFTLTISSLQPEDFATYYCQQSYQTPPFSFGQGTKVEIKR
notes: Differs from antibody A only by N to Q at position 93 of VL

- Kd [8]: 97.9 nM
- koff [8]: 0.0329 s⁻¹
- kon [8]: 336000 M⁻¹ s⁻¹
B14: Antibody A N93T (antibody, human IgG1, kappa, V domains shown)
VH: B13 VH
VL: B13 VL with Q93T
notes: Differs from antibody A only by N to T at position 93 of VL

- Kd [8]: 32.6 nM
- koff [8]: 0.0215 s⁻¹
- kon [8]: 659000 M⁻¹ s⁻¹
B15: Antibody A N93S (antibody, human IgG1, kappa, V domains shown)
VH: B13 VH
VL: B13 VL with Q93S
notes: Differs from antibody A only by N to S at position 93 of VL

- Kd [8]: 15 nM
- koff [8]: 0.0108 s⁻¹
- kon [8]: 717000 M⁻¹ s⁻¹
B16: Antibody A T94V (antibody, human IgG1, kappa, V domains shown)
VH: B13 VH
VL: B13 VL with Q93N, T94V
notes: Differs from antibody A only by T to V at position 94 of VL
